In paper PMC11764028 (Bioactive Materials, 2025):

Molecular target: the molecule itself
Assay: SEC + native gel or EMSA

B1: dual-functional fusion protein KFS (KALA peptide - human ferritin light chain - SIINFEKL) (other)
chain: WEAKLAKALAKALAKHLAKALAKALKAIRQNYSTDVEAAVNSLVNLYLQASYTYLSLGFYFDRDDVALEGVSHFFRELAEEKREGYERLLKMQNQRGGRALFQDIKKPAEDEWGKTPDAMKAAMALEKKLNQALLDLHALGSARTDPHLCDFLETHFLDEEVKLIKKMGDHLTNLHRGGGGSGGGGSGGGGSSIINFEKL
Question: For B1, which “stoichiometry N” value is on record?
Answer: 40
